From PMC4402543 (Nucleic Acids Research, 2015) come the findings set out here.

The target of this assay is full-length His-PCAF fusion protein (human, UniProt Q92831 1-832). Description: pull-down.
full-length His-PCAF fusion protein, sequence (Q92831 whole entry, the tested form may be a part): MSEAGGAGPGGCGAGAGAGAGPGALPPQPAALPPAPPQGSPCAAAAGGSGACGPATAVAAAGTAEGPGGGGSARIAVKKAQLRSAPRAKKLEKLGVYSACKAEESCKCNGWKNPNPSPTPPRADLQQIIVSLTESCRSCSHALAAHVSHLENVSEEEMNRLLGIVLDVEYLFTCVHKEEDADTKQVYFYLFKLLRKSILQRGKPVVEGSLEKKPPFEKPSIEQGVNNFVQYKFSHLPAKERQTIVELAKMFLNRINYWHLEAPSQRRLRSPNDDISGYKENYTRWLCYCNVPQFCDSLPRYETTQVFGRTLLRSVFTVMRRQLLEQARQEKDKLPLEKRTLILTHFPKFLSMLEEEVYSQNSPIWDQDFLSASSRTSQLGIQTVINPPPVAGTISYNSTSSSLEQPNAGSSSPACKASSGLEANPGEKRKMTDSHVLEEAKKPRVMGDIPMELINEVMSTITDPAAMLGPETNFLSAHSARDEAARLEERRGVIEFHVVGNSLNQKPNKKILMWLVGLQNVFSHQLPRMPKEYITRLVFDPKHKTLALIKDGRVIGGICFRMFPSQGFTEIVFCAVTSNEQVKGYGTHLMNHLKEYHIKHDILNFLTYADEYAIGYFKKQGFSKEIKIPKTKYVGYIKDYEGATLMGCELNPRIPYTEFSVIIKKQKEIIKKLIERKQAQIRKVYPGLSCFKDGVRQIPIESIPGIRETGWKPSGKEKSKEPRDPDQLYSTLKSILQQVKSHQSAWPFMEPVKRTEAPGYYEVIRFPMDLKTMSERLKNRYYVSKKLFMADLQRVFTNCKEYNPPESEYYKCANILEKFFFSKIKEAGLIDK

B1: GST-EZH2 SET domain (610-746) (domain or fragment)
chain: not shown
For the molecule B1, the binding result is on record as “binds”.

B2: GST-EZH2 N-terminal domain (1-522) (domain or fragment)
chain: MGQTGKKSEKGPVCWRKRVKSEYMRLRQLKRFRRADEVKSMFSSNRQKILERTEILNQEWKQRRIQPVHILTSVSSLRGTRECSVTSDLDFPTQVIPLKTLNAVASVPIMYSWSPLQQNFMVEDETVLHNIPYMGDEVLDQDGTFIEELIKNYDGKVHGDRECGFINDEIFVELVNALGQYNDDDDDDDGDDPEEREEKQKDLEDHRDDKESRPPRKFPSDKIFEAISSMFPDKGTAEELKEKYKELTEQQLPGALPPECTPNIDGPNAKSVQREQSLHSFHTLFCRRCFKYDCFLHPFHATPNTYKRKNTETALDNKPCGPQCYQHLEGAKEFAAALTAERIKTPPKRPGGRRRGRLPNNSSRPSTPTINVLESKDTDSDREAGTETGGENNDKEEEEKKDETSSSSEANSRCQTPIKMKPNIEPPENVEWSGAEASMFRVLIGTYYDNFCAIARLIGTKTCRQVYEFRVKESSIIAPAPAEDVDTPPRKKKRKHRLWAAHCRKIQLKKDGSSNHVYNYQP
For B2, the binding result is given as “binds”.
